Test results reported in patent publication US20210261622A1 (Janssen / Centocor, published 2021).
Like-named read-outs stand apart in the source and are kept apart here. Bridge positions count the residues as written; N and C are the ends. Square brackets hold non-standard residues; d marks the D form. Trp(7-Ph) = N[C@@H](Cc1c[nH]c2c(-c3ccccc3)cccc12)C(=O)O; Trp(5-CN) = N#Cc1ccc2[nH]cc(C[C@H](N)C(=O)O)c2c1; Trp(7-Me) = Cc1cccc2c(C[C@H](N)C(=O)O)c[nH]c12; 2Nal = N[C@@H](Cc1ccc2ccccc2c1)C(=O)O; AEF = NCCOc1ccc(C[C@H](N)C(=O)O)cc1; dNMeY = CN[C@H](Cc1ccc(O)cc1)C(=O)O; 3Pal = N[C@@H](Cc1cccnc1)C(=O)O; Cit = NC(=O)NCCC[C@H](N)C(=O)O; αMeL = CC(C)C[C@](C)(N)C(=O)O; Pen = CC(C)(S)[C@H](N)C(=O)O; Trp(5-Ca) = not defined here; αMeK = C[C@](N)(CCCCN)C(=O)O; Ac5c = NC1(C(=O)O)CCCC1; Thp = NC1(C(=O)O)CCOCC1; Abu = CC[C@H](N)C(=O)O; Sar = CNCC(=O)O

T1: human IL-23R (human, UniProt Q5VWK5 24-629)
T1 sequence (looked up): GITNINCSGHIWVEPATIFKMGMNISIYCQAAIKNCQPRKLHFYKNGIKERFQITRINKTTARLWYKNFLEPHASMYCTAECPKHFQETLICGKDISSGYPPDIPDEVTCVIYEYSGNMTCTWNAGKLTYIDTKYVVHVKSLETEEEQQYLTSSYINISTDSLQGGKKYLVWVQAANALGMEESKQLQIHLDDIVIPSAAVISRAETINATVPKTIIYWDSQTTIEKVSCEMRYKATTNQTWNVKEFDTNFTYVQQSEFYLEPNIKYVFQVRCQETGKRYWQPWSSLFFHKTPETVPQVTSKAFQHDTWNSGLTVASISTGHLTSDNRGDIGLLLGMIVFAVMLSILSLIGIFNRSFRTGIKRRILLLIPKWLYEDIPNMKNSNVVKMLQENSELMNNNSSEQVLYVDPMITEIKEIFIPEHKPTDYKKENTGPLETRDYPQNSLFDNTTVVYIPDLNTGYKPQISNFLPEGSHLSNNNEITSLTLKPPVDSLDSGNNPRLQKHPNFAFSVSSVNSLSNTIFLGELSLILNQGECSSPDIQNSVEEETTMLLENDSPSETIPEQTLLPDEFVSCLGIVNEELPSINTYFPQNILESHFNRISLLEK

T2: interleukin-23 receptor (IL-23R) (human, UniProt Q5VWK5 24-629)
T2 sequence (looked up): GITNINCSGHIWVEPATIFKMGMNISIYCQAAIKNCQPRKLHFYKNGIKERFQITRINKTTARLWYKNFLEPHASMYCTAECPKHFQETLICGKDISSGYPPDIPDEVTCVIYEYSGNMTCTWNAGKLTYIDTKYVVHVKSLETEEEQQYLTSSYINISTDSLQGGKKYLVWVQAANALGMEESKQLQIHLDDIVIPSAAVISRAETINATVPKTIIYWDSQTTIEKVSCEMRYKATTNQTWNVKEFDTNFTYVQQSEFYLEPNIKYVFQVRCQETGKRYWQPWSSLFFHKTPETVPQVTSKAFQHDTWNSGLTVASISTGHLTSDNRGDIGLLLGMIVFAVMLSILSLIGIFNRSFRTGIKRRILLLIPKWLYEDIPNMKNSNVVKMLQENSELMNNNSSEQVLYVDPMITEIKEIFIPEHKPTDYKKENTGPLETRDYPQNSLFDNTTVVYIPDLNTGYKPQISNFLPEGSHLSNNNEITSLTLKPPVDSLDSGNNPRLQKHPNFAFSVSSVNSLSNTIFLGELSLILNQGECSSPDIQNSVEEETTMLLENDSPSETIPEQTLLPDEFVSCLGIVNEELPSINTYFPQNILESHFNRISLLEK


Legend:
Experiment in all cases: cell-based or functional assay
human IL-23R [1] = biological target: T1, human IL-23R
[2] = biological target: T2, interleukin-23 receptor (IL-23R)
human IL-23R [3] = biological target: T1, human IL-23R; remark: listed apart in the source

Binder	pStat3 HTRF IC50 (human IL-23R [1])	PBMC pSTAT3 IC50 (human IL-23R [1])	also measured
Ac-[Pen]NT[Trp(7-(3-carboxamidophenyl))]K(Ac)[Pen][AEF][2Nal][Thp]EN[3Pal][Sar]-NH2 (disulfide 1-6 (inferred)) [Peptide No. 142]	90 pM	–	–
Ac-[Pen]NT[Trp(5-CN)]K(Ac)[Pen][AEF][2Nal][Thp]EN[3Pal][Sar]-NH2 (disulfide 1-6 (inferred)) [Peptide No. 154]	> 10 nM	–	–
Ac-[Abu]QT[Trp(7-Ph)]K(Ac)C[AEF][2Nal][αMeK]K(Ac)N[dK][Sar]-NH2 (thioether 1-6) [Peptide No. 18]	–	1.1 nM	–
Ac-[Pen]NT[Trp(7-Me)]K(Ac)[Pen][AEF][2Nal][Thp]EN[3Pal][dNMeY]-NH2 (disulfide 1-6; SMILES CC(=O)NCCCC[C@@H]1NC(=O)[C@H](Cc2c[nH]c3c(C)cccc23)NC(=O)[C@H]([C@@H](C)O)NC(=O)[C@H](CC(N)=O)NC(=O)[C@@H](NC(C)=O)C(C)(C)SSC(C)(C)[C@@H](C(=O)N[C@@H](Cc2ccc(OCCN)cc2)C(=O)N[C@@H](Cc2ccc3ccccc3c2)C(=O)NC2(C(=O)N[C@@H](CCC(=O)O)C(=O)N[C@@H](CC(N)=O)C(=O)N[C@@H](Cc3cccnc3)C(=O)N(C)[C@H](Cc3ccc(O)cc3)C(N)=O)CCOCC2)NC1=O) [Peptide No. 121 (SEQ ID NO: 121)]	–	–	IC50, NK Cell Assay (IFNγ in supernatant of human NK cells stimulated with IL-23 and IL-18) [2]: 0.04 nM
Ac-[dR][Pen]NT[Trp(7-Me)]K(Ac)[Pen][AEF][2Nal][Ac5c]EN[3Pal][Sar]-NH2 (disulfide 2-7; SMILES CC(=O)NCCCC[C@@H]1NC(=O)[C@H](Cc2c[nH]c3c(C)cccc23)NC(=O)[C@H]([C@@H](C)O)NC(=O)[C@H](CC(N)=O)NC(=O)[C@@H](NC(=O)[C@@H](CCCNC(=N)N)NC(C)=O)C(C)(C)SSC(C)(C)[C@@H](C(=O)N[C@@H](Cc2ccc(OCCN)cc2)C(=O)N[C@@H](Cc2ccc3ccccc3c2)C(=O)NC2(C(=O)N[C@@H](CCC(=O)O)C(=O)N[C@@H](CC(N)=O)C(=O)N[C@@H](Cc3cccnc3)C(=O)N(C)CC(N)=O)CCCC2)NC1=O) [Peptide No. 235]	–	–	PBMC pSTAT3 IC50 (human IL-23R [3]): 10 pM
Ac-[Pen]NT[Trp(5-Ca)]K(Ac)[Pen][AEF][2Nal][Thp]EN[3Pal][Sar]-NH2 (disulfide 1-6; reading uncertain; also: printed as Ac-[Pen]-N-T-[W(5-Ca)]-[Lys(Ac)]-[Pen]-Phe[4-(2-aminoethoxy)]-[2-Nal]-[THP]-E-N-[3Pal]-[Sarc]-NH2; Pen-Pen disulfide) [Peptide No. 160]	> 10 nM	–	–
Ac-[Abu]QT[Trp(7-Me)]K(Ac)C[AEF][2Nal][αMeK]K(Ac)N[dK][Sar]-NH2 (thioether 1-6) [Peptide No. 17]	–	0.791 nM	–

Continued, in another order:

pStat3 HTRF IC50 (human IL-23R [1])	PBMC pSTAT3 IC50 (human IL-23R [1])	Binder	also measured
> 10 nM	–	Ac-[Pen]NT[Trp(5-Ph)]K(Ac)[Pen][AEF][2Nal][Thp]EN[3Pal][Sar]-NH2 (disulfide 1-6 (inferred)) [Peptide No. 150]	–
–	1 nM	RXQTWQCFXXENNY (Ac-[(D)Arg]-[Abu]-Q-T-W-Q-[Cys]-Phe[4-(2-aminoethoxy)]-[2-Nal]-[THP]-E-N-N-[(D)NMeTyr]-NH2; Abu-Cys thioether) [Peptide No. 8]	–
–	3 nM	Ac-[Pen]NT[Trp(7-Me)][Cit][Pen][AEF][2Nal][αMeL]K(Ac)N[dH]-NH2 (disulfide 1-6; SMILES CC(=O)NCCCC[C@H](NC(=O)[C@](C)(CC(C)C)NC(=O)[C@H](Cc1ccc2ccccc2c1)NC(=O)[C@H](Cc1ccc(OCCN)cc1)NC(=O)[C@H]1NC(=O)[C@H](CCCNC(N)=O)NC(=O)[C@H](Cc2c[nH]c3c(C)cccc23)NC(=O)[C@H]([C@@H](C)O)NC(=O)[C@H](CC(N)=O)NC(=O)[C@@H](NC(C)=O)C(C)(C)SSC1(C)C)C(=O)N[C@@H](CC(N)=O)C(=O)N[C@H](Cc1c[nH]cn1)C(N)=O) [Peptide No. 85]	–
20 pM	–	Ac-[Pen]NT[Trp(7-Ph)]K(Ac)[Pen][AEF][2Nal][Thp]K(Ac)N[3Pal][Sar]-NH2 (disulfide 1-6; SMILES CC(=O)NCCCC[C@@H]1NC(=O)[C@H](Cc2c[nH]c3c(-c4ccccc4)cccc23)NC(=O)[C@H]([C@@H](C)O)NC(=O)[C@H](CC(N)=O)NC(=O)[C@@H](NC(C)=O)C(C)(C)SSC(C)(C)[C@@H](C(=O)N[C@@H](Cc2ccc(OCCN)cc2)C(=O)N[C@@H](Cc2ccc3ccccc3c2)C(=O)NC2(C(=O)N[C@@H](CCCCNC(C)=O)C(=O)N[C@@H](CC(N)=O)C(=O)N[C@@H](Cc3cccnc3)C(=O)N(C)CC(N)=O)CCOCC2)NC1=O) [Peptide No. 117]	–
–	> 2 µM	Ac-[dR][Pen]NT[Trp(7-Me)]K(Ac)[Pen][AEF][2Nal][Thp]ENN[dNMeY]-NH2 (disulfide 2-7) [Peptide No. 88]	–
